Results from the DeepSol protein solubility set.

Assay: soluble on expression in E. coli; label from the status in PepcDB or PDB records

Row | Sequence | soluble on expression in E. coli
1 | MGSDKIHHHHHHMTSSFTDYCKFFNRILSEVQETQEQAIIKGAHLVSEAVMNGGRFYVFGSGHSHMIAEEIYNRAGGLALVTAILPPELMLHERPNKSTYLERIEGLSKSYLKLHQVTNKDVIMIISNSGRNTVPVEMAIESRNIGAKVIAMTSMKHSQKVTSRHKSGKKLYEYADVVLDNGAPVGDAGFQIANSEIYSGATSDSIGCFLAQALIVETLHLLVQQGFEPPVFKSSNVDGADLYNDKIFNEYVKW | not soluble
2 | MEALRASYGDSSSDSDTDDLSPASPVTANSGEKDSISLPPPPLALLDSIVSTGSLDFFSTEPGVRVRNFPHVDGNYALHVYVPVCIPPLPKKEIVCFLKKVASVVPHLHLVEADVPLSILCKDDQKFERALGREFHISLGRNVPLRVHQINSVISMLRQKLQLQKRYLIDFNKWEVFVNDDHTRSFLSLEITTSGLSEISKQIDAVNEVYKLHNLPEFYKDPRPHISLVWALGDIRTSLKGAVDVELRKLRAGGCVQNRIFTSKFCGIECKIGNKTHKICKLPDE | soluble
3 | MADSNDLMSEFQKLQQETSKIQSHLTKDFLSSSAKLSENRVLQATQELCGKLTEKQKVQDDTINLLLSALGQIQENQNKILNQFASMQSQLDIVKRRQDAYERDLIQQKPSVPEQKVGESSKKSPRSAESALKYVETCTKVVDLCIAVSMPGRLFSIGANKMESVEQLKMKIECQTGIPRTKFWLRLHGKPLYDDKKLADYKWDTSVELLVRAS | not soluble
4 | MGSDKIHHHHHHMSTVAFHTLGCKVNHYETEAIWQLFKEANYERVDFEANADVFVINTCTVTNTGDKKSRQIIRRAIRQNPDAVICVTGCYAQTSSAEIMEIPGVDVVVGTQDRHKLLGYIDEFRKERQPINGVGNIMKNRKYEELDVPYFTDRTRASLKIQEGCNNFCTFCIIPWARGLMRSRDPEKVVEQATQLVNSGYKEIVLTGIHTGGYGQDLKDYNLAQLLRDLETINGLERIRISSIEASQLTDEVIDVLERSTKVVRHLHIPLQSGSDTVLKRMRRKYTMDRFSERLTKLHKALPDLAVTSDVIVGFPGETEAEFQETYDFIVKHKFSELHVFPYSPRIGTPAARMDDQIDEEIKNERVHKLITLSNQLGKLYASKFDQDVLEVIPEEQGDTEGTLVGYADNYMKVQFEGDESLIGQIVKVKITQANYPLNEGQAIKVVDFATNKSDREVLV | not soluble
5 | SADESDMRNELNDIQARADQLGDESLESTRRMLQLVEESKDAGIRTLVMLDEQGEQLERIEEGMDQINKDMKEAEKNLTDLGNLCGLCPCPCNKLKGGGQSWGNNQDGVVSSQPARVVDEREQMAISGGFIRRVTNDARENEMDENLEQVGSIIGNLRHMALDMGNEIDTQNRQIDRIMDMADSNKTRIDEANQRATKMLGSG | soluble
6 | MSLATEQIQHIAIVGCVHGKYREMYRQLSEYEKSTGKEISFVICTGDMQTLRYEADLVYLKVPPKYKQMGDFHLYYEGKEKAPYLTLFIGGNHESSNVLLHLYNGGFVCFNMYYLGVCSCININGLRIVGVSGIYKSFDEKKPYTYPPSPNDVVSLFHTRNYVIQMLSNLSQSSQIDISLSHDWPQGIVMKGNYKQLYRFQPGFKKDGASLGSPINKVILNTLKPKYWISGHMHCEYHAEEGPTHFIALGKIGYKNAISYLDLPLKQKTDLEYDKDWVCNLIMTWPAFSNKAQFPDLSYSISELLSKRTKELDKKIIELWEKYIGLKIIYDSDTFDIQFTSRRFYIEKIYNELNINEGHHHHHH | soluble
7 | MHTTSSPNETLSSWDSSARREQASKNNIYVTLSAKQHPRILQIYGGAYYNPKLERLLENIVRKLTVGLQNSYKSYSLTILNTQSVNAFALPNGSIYITRGMLTLANDSSEVAAILAHEIAHITANHGILRLQKKAELKTTERISSNLLSLSGEKIHKSIENKRKLAQFSRNQELQADSIALEMLKQAGYDPFSLPRFLQSMAAYSLFRSIPGSQNAPLGFLITHPTTPQRIRLAIEKAHKISSANTGNTDRDAFLKSIDGMIFGGSPHTGFVQNNQFIHPQLGITFSVPQNFIIENSAHTVWASGPDKIAIRFDAIPHPAEISASEYLQSGWLAGLDKSSVHPFIIQGLPGAHARARNAQWQFDVVVILFNNHVLRFLTAAPHDSQNFAEIAEKTVQSFRFLSSSQLKKLKPLRIRIVRVQKGESVASLAKKMQNIPHNEKLFRILNSLSPSQALQTGAAVKIITQLEHHHHHH | not soluble
8 | MAMVSEFLKQAWFIDNEEQEYIKTVKGSKGGPGSAVSPYPTFNPSSDVEALHKAITVKGVDEATIIEILTKRTNAQRQQIKAAYLQEKGKPLDEALKKALTGHLEEVALALLKTPAQFDADELRAAMKGLGTDEDTLNEILASRTNREIREINRVYKEELKRDLAKDITSDTSGDYQKALLSLAKGDRSEDLAINDDLADTDARALYEAGERRKGTDLNVFITILTTRSYPHLRRVFQKYSKYSKHDMNKVLDLELKGDIENCLTVVVKCATSKPMFFAEKLHQAMKGIGTRHKTLIRIMVSRSEIDMNDIKACYQKLYGISLCQAILDETKGDYEKILVALCGGD | soluble
9 | MLSTIRYYYEHSLIEEKTKHQELSWQTPISRSLVTHDPSTGGIQLSKKNAMLNDAVTTTTTVEVFRAPTNTDMISLTPASNGGPPLLVRTNGPQYEQWNDRRVQTMMVDDDRRDLAKGVQWKERLIEESDRRYRDNGSDFYDEITEPTQFIHHDYRPKPLGFQTITHPIIMTGSRDDLRSQPPQYPAPLSPLYIVPDRHRNIANSVSPGQYSRRSNGYEDRRKDTEELRDERKRENEQNQNRERYHHRRSKSSNRDDASVSHRSLRHRSMSPASRRSFGTSLGGSQEFVIPAHSPIGSTLMLASPDPNELPGRPASAKSQEIFALYQTRDAYNRIVDQL | not soluble
10 | VREVCSEQAETGPCRAMISRWYFDVTEGKCAPFFYGGCGGNRNNFDTEEYCMAVCGSA | soluble
11 | MGHHHHHHSHSLHYIHPYQPNEYLKALVAVGEICQDYDSDKMFPAFGFGARIPPEYTVSHDFAINFNEDNPECAGIQGVVEAYQSCLPKLQLYGPTNIAPIIQKVAKSASEETNTKEASQYFILLILTDGVITDMADTREAIVHASHLPMSVIIVGVGNADFSDMQMLDGDDGILRSPKGEPVLRDIVQFVPFRNFKHASPAALAKSVLAEVPNQVVDYYNGKGIKPKCSSEMY | soluble
12 | MAHHHHHHMEDKLDFTKLRDPFDMDEINRKLQEKVADDDPVQKAMPDPMDPKFRAPLRCSACGAVIEHAVRLLRPIIERQSERAARSGGVLPADALPKEYEMVDIFENLCGEVGRLYGLEVEKDKKRPTLRFSKSFGVSRLQGAWMPSFLTSTCEGVLDVEGEEKLAAMILGVARSEAEAGRGKVISMNPDQGIVDKVREMVCTKWEESAKGCDAYGVAIDPRETDNDDGAEEAASDL | not soluble
13 | MGSDKIHHHHHHMINSRARRNLIAQDSGEHRHDFPQILIGWRGEIECEFSKGSGRLNNGLVGIVPNAAEHLFRGLNNNSELLVIDVVLEDPYIQAMEQACNLSFSETLFKQPHFVSLAPEMLPLLEYSANQLLLDKKTATPQLNCQLVSLFMTQLSQMYSPEIKSSAINQRIEATRLNDIIDQRLARPPNNTELANLLHLSESHFYCICQQQFGVSPQKYVMRRRMQRAKFLLLNSKIPLSALASELGFSDVSSFSRAYKKYYQQPPGQTRTLFQLGLNANHASIRK | not soluble
14 | MPYVDRQNRICGFLDIEDNENSGKFLRRYFILDTQANCLLWYMDNPQNLAVGAGAVGSLQLTYISKVSIATPKQKPKTPFCFVINALSQRYFLQANDQKDLKDWVEALNQASKITVPKAGTVPLATEVLKNLTAPPTLEKKPQVAYKTEIIGGVVVQTPISQNGGDGQEGCEPGTHAFLRRSQSYIPTSGCRPSTGPPLIKSGYCVKQGNVRKSWKRRFFALDDFTICYFKCEQDREPLRTIPLKDVLKTHECLVKSGDLLMRDNLFEIITTSRTFYVQADSPEDMHSWIEGIGAAVQALKCHPREPSFSRSISLTRPGSSTLTSAPNSILSRRRPPAEEKRGLCKAPSVASSWQPWTPVPQAEEKPLSVEHAPEDSLFMPNPGESTATGVLASSRVRHRSEPQHPKEKPFVFNLDDENIRTSDV | soluble
15 | SSQPDPTPEQLNKSSQFTGVMGNLRCLYDNHFVEGTNVRSTGQLLQHDLIFPIKDLKLKNYDSVKTEFNSKDLATKYKNKDVDIFGSNYYYNCYYSEGNSCKNAKKTCMYGGVTEHHRNQIEGKFPNITVKVYEDNENILSFDITTNKKQVTVQELDCKTRKILVSRKNLYEFNNSPYETGYIKFIESSGDSFWYDMMPAPGAIFDQSKYLMLYNDNKTVSSSAIAIEVHLTKK | soluble
16 | MAHHHHHHMNSTTTISADPDGSSLCAASRISTPGTMSVLVPYKRRGQKSSMARGGASPQRRSPQPPYAGKSISTSASTLSSSVQPHGAGAASRGDQSRRGDAAPDGTLNAYSSHPAAPLDRPRDEEFDAVEQRARMALESIATRDEDLEPSMGDHIGVLQSYRTACEARAMYREAYLVQQVLRNLRLEEESRHVRGITEQQMEERRILEEAHRQEFREFHHSWNARIDAFEEEQLEAELALLERQNEELIRFQEEMRNFQPRLLRYSRSLLESRLKQQTLAKQRDYVGAQAQKAHAEAIEVEDIERFEAARMSLFERREYAARHRHQQELYALRTKVESRRLYLERYRKQELDVLLQRYINARRSMESQQNIVRNKTGTLLLKHACNMKTDSSGTAVLVESAGSGAFGTMVQRRQAYELRALQGSPDGASASVRDGSAM | not soluble
17 | MASECVDENSKPWMRVTVSCALLPEVLKQGAEAGGAVKLTGNPSEQSSEDGSHHCSSNFQNSPVTSDLSVLDASPCGLPAEKRKPPHRETSISSNASQSEREIAPTATRRLSPKPETATLSPSESSSLTAATLSNCSSRVQSSSDEKIGNCPSTSACSVSQTTASSEAPSWLSSGASTAQVLSERRGSIEEQPAPETSAAAVRVSRSSSDSENLFASCSASLRNLEPDDISDPENEAAAPACAETGASRAQDAAAVRADAENLGEGESHMETASTRAESLAKDAISSKVSRRGSAHTSSDASGQCQDALPSVGEGKPGEMNGREEDGEAEKPEASAESLQGSDGQANESEAPKPGGGRVDAKMRAKFKREFVRSWVDINRAPSWPPIKKNKYLSSDWKRVDLRTAAGEIRVETKKHRLFLNDLCFLFDGVYTQKSTLGRKAGLGLFCERPEGLHKGQIITEFVGWLVDRDLAESYRKQRTASHIVAVQKGFLYIDGAKEPAYGMGGGSFANDGSEFLGGPGNNAQFYHWFDDELGRTRVFLRATADIKNGEEIFVPYHKTYWVDNFEEQAENCPDAFKQRKLEQLRRRYKNPEFVHIPHREEVAMREREEAERRKRDKEESEKKKAAAKQPRCPVKRPCSAYLLFSVARRKELLKACGILSKGDDEPASQQVSESPEVPREGQRKRRASSASQAAAPVPAAANKRRKAEKDEPSSPEETKRGQVVAAAGLKRGAARPACVGDETAQKLAGWLAKDGAANVRTLCAELTREVAREWGNMRPEEKKPWEQLAEKEKIRYAKAVRTWREKLKKKKSGRETATRKRKVPCSRKGHGTEKGEKAGKVKPQADTSPREAAPEGTETRDHEDVQAGAKDRAATQKER | soluble
18 | MFGFPTATLLDCHGRYAQNVAFFNVMTEAHHKYDHSEATGSSSWDIQNSFRREKLEQKSPDSKTLQEDSPGVRQRVYECQECGKSFRQKGSLTLHERIHTGQKPFECTHCGKSFRAKGNLVTHQRIHTGEKPYQCKECGKSFSQRGSLAVHERLHTGQKPYECAICQRSFRNQSNLAVHRRVHSGEKPYRCDQCGKAFSQKGSLIVHIRVHTGLKPYACTQCRKSFHTRGNCILHGKIHTGETPYLCGQCGKSFTQRGSLAVHQRSCSQRLTL | soluble
19 | VAIDYTRRPSSPAAPQGGVSLSKVTLSKAAPSVSLTKSGERQGAMRVNLNWSTGATPQPKKTGFFAKLAAAAGGNNGIDLDLGCLYELADGSKGVVQALGNSFGSLQAPPFIKLDADDRTGTVTGGENLHINLDRPEMFKRILIFAMIYDGAPNWAAVDGVVTLYPTSGPEVEVRLDTSNSSARICAIAMLQNTGQGITVTREVKYIEGSQADLDKTYSWGMKWAAGRK | not soluble
